For 68 variants, self-cleavage results are on record in the RNAGym collection of RNA variant scans (doi:10.1093/nar/gkz1192).

B1: CPEB3 Ribozyme (parent)
chain: UAACAGGGGGCCACAGCAGAAGCGUUCACGUCGCAGCCCCUGUCAGAUUCUGGUGAAUCUGCGAAUUCUGCUGUAUAUCUC

The variants in this data set derive from B1. The data set is described as follows: self-cleavage, relative activity (ratio to wild type); higher = more cleavage; in vitro, sequencing. The method in brief: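 Relative activity compares each variant's cleaved/total read fraction with that of the unmutated ribozyme. To get these fractions, barcoded CPEB3 ribozyme libraries from rounds of error-prone PCR were transcribed with T7 RNA polymerase for 5 hours at 37°C and then given 15 min of DNase I treatment before EDTA was added. The RNAs were reverse transcribed with template switching and sequenced on Illumina, and DNA sequencing linked barcodes to variants. A minimum of 5 reads applied, and three batches were averaged.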
UAACAGGGGGCCACAGCAGAAGCGUUCACGUCACAGCCCCUGUCAGAUUCUGGUGAAUCUGCGAAUCCUGCUGUAUAUCUC: the self-cleavage amounted to 0.22.

In the case of UAACAGGGGGCCACAGCAGAAGCGUUCACGUCACAGCCCCUGUCAGAUUCUGGUGAAUCUGCGAAUACUGCUGUAUAUCUC, the self-cleavage was 0.15.

As for UAACAGGGGGCCACAGCAGAAGCGUUCACGUCACAACCCCUGUCAGAUUCUGGUGAAUCUGCGAAUUCUGCUGUAUAUCUC, the self-cleavage was 0.07.

Regarding UAACAGGGGGCCACAGCAGAAGCGUUCACGUCCCAGCCCCUGUCAGAUUCUGGUGAAUCUGCGGAUUCUGCUGUAUAUCUC, the self-cleavage amounted to 0.18.

For UAACAGGGGGCCACAGCAGAAGCGUUCACGUCACAGCCCCUGUCAGAUUCUGGUGAAUCUGCGAAUUCUGCUAUAUAUCUC, the self-cleavage came out at 0.51.

With UAACAGGGGGCCACAGCAGAAGCGUUCACGUCACAGCCCCUGUCAGAUUCUGGUGAAUCUGCGAAUUCUCCUGUAUAUCUC, the self-cleavage was determined as 0.26.

For the variant UAACAGGGGGCCACAGCAGAAGCGUUCACGUCACAGCCCCUGUCAGAUUCUGGUGAAUCUGCGAAUUCUUCUGUAUAUCUC, the self-cleavage is 0.71.

Consider UAACAGGGGGCCACAGCAGAAGCGUUCACGUCACAGCCCCUGUCAGAUUCUGGUGAAUCUGCGAAUUCUGCUGUAUAACUC, for which the self-cleavage was 0.04.

Turning to UAACAGGGGGCCACAGCAGAAGCGUUCACGUCACAGCCCCUGUCAGAUUCUGGUGAAUCUGCGAAUUCUGCUGUAUACCUC, the self-cleavage is 0.2.

For UAACAGGGGGCCACAGCAGAAGCGUUCACGUCACAGCCCCUGUCAGAUUCUGGUGAAUUUGCGAAUUCUGCUGUAUAUCUC, the self-cleavage was 0.24.

As to UAACAGGGGGCCACAGCAGAAGCGUUCACGUCACAGCCCCUGUCAGAUUCUGGUGAACCUGCGAAUUCUGCUGUAUAUCUC, the self-cleavage was found to be 0.08.

Turning to UAACAGGGGGCCACAGCAGAAGCGUUCACGUCACAGCCCCUGUCAGAUUCUGGUGAAUCUGCGAAUUCUGCUGCAUAUCUC, the self-cleavage is 0.57.

As for UAACAGGGGGCCACAGCAGAAGCGUUCACGUCACAGCCCCUGUCAGAUUCUGGUGAAUCUGCGAAUUCUGCUGAAUAUCUC, the self-cleavage worked out at 0.33.

Regarding UAACAGGGGGCCACAGCAGAAGCGUUCACGUCCCAGCCCCUGUCAGAUUCUGGUGAAUCUGCGAAUUCUGCUGUAUAUCUC, the self-cleavage stood at 0.23.

Take UAACAGGGGGCCACAGCAGAAGCGUUCACGUCCCAGCCCCUGUCAGAUUCUGGUGGAUCUGCGAAUUCUGCUGUAUAUCUC: the self-cleavage came to 0.12.

Turning to UAACAGGGGGCCACAGCAGAAGCGUUCACGUCCCAGCCCCUGUCAGAUUCUGGUGUAUCUGCGAAUUCUGCUGUAUAUCUC, the self-cleavage is 0.14.

Turning to UAACAGGGGGCCACAGCAGAAGCGUUCACGUCACAGCCCCUGUCAGAUUCUGGUGAAUCUGCAAAUUCUGCUGUAUAUCUC, the self-cleavage was found to be 0.14.

UAACAGGGGGCCACAGCAGAAGCGUUCACGUCACAGCCCCUGUCAGAUUCUGGUGAAUCUGCUAAUUCUGCUGUAUAUCUC: the self-cleavage was found to be 0.1.

Turning to UAACAGGGGGCCACAGCAGAAGCGUUCACGUCACAGCCCCUGUCAGAUACUGGUGAAUCUGCGAAUUCUGCUGUAUAUCUC, the self-cleavage is 0.29.

As for UAACAGGGGGCCACAGCAGAAGCGUUCACGUCACAGCCCCUGUCAGAUCCUGGUGAAUCUGCGAAUUCUGCUGUAUAUCUC, the self-cleavage was found to be 0.28.

UAACAGGGGGCCACAGCAGAAGCGUUCACGUCCCAGCCCCUGUCAGAUUCUGGUGAGUCUGCGAAUUCUGCUGUAUAUCUC: the self-cleavage was found to be 0.13.

In the case of UAACAGGGGGCCACAGCAGAAGCGUUCACGUCCCAGCCCCUGUCAGAUUCUGGUGAAUCUGCGAAUUCUGCUGUGUAUCUC, the self-cleavage amounted to 0.18.

On to UAACAGGGGGCCACAGCAGAAGCGUUCACGUCCCAGCUCCUGUCAGAUUCUGGUGAAUCUGCGAAUUCUGCUGUAUAUCUC, for which the self-cleavage worked out at 0.12.

For the variant UAACAGGGGGCCACAGCAGAAGCGUUCACGUCACAGCCCCUUUCAGAUUCUGGUGAAUCUGCGAAUUCUGCUGUAUAUCUC, the self-cleavage is 0.39.

In the case of UAACAGGGGGCCACAGCAGAAGCGUUCACGUCCCAGCCCCUGUCUGAUUCUGGUGAAUCUGCGAAUUCUGCUGUAUAUCUC, the self-cleavage stood at 0.17.

Turning to UAACAGGGGGCCACAGCAGAAGCGUUCACGUCCCAGCCCCUGUCGGAUUCUGGUGAAUCUGCGAAUUCUGCUGUAUAUCUC, the self-cleavage stood at 0.23.

With UAACAGGGGGCCACAGCAGAAGCGUUCACGUCCCAGCCCAUGUCAGAUUCUGGUGAAUCUGCGAAUUCUGCUGUAUAUCUC, the self-cleavage amounted to 0.15.

On to UAACAGGGGGCCACAGCAGAAGCGUUCACGUCCCAGCCCCUGUCAGAUUCUGGUGAAUCUGCGAAUUCUGCUGUAUAUUUC, for which the self-cleavage was 0.19.

In the case of UAACAGGGGGCCACAGCAGAAGCGUUCACGUCACAGCCCCUGUCAGAUUCUGGAGAAUCUGCGAAUUCUGCUGUAUAUCUC, the self-cleavage is 0.18.

As to UAACAGGGGGCCACAGCAGAAGCGUUCACGUCACAGCCCCUGUCAGAUUCUGGCGAAUCUGCGAAUUCUGCUGUAUAUCUC, the self-cleavage was 0.15.

Turning to UAACAGGGGGCCACAGCAGAAGCGUUCACGUCCCAGCCCCUGUCAGAUUCUGGUGAAUCUGCGACUUCUGCUGUAUAUCUC, the self-cleavage was 0.1.

For the variant UAACAGGGGGCCACAGCAGAAGCGUUCACGUCCCAGCCCCUGUCAGAUUCUGGUGAAUCUGCGAGUUCUGCUGUAUAUCUC, the self-cleavage stood at 0.18.

Regarding UAACAGGGGGCCACAGCAGAAGCGUUCACGUCACAGCCCCUGUCAGAUUCUGGUGAAUCUGCGAAUUCCGCUGUAUAUCUC, the self-cleavage turned out to be 0.27.

In the case of UAACAGGGGGCCACAGCAGAAGCGUUCACGUCACAGCCCCUGUCAGAUUCUGGUGAAUCUGCGAAUUCGGCUGUAUAUCUC, the self-cleavage is 0.16.

Regarding UAACAGGGGGCCACAGCAGAAGCGUUCACGUCACAGCCCCUGUCAGAUUCUGGUGAAUCUGCGAAUUCUGCUGUAUAUCAC, the self-cleavage stood at 0.29.

For UAACAGGGGGCCACAGCAGAAGCGUUCACGUCACAGCCCCUGUCAGAUUCUGGUGAAUCUGCGAAUUCUGCUGUAUAUCGC, the self-cleavage worked out at 0.14.

Regarding UAACAGGGGGCCACAGCAGAAGCGUUCACGUCACAGCCCCUGUCAGAUUCUGGUGAAUCUGCGAAUUCUGCUGUAUAUCCC, the self-cleavage is 0.31.

As to UAACAGGGGGCCACAGCAGAAGCGUUCACGUCACAGCCCCUGUCAGAUUCUGGUGAAUCAGCGAAUUCUGCUGUAUAUCUC, the self-cleavage was 0.15.

UAACAGGGGGCCACAGCAGAAGCGUUCACGUCACAGCCCCUGUCAGAUUCUGGUGAAUCCGCGAAUUCUGCUGUAUAUCUC: the self-cleavage came to 0.24.

For UAACAGGGGGCCACAGCAGAAGCGUUCACGUCACAGCCCCUGUCAGAUUCUCGUGAAUCUGCGAAUUCUGCUGUAUAUCUC, the self-cleavage was 0.12.

For UAACAGGGGGCCACAGCAGAAGCGUUCACGUCACAGCCCCUGUCAGAUUCUAGUGAAUCUGCGAAUUCUGCUGUAUAUCUC, the self-cleavage worked out at 0.3.

On to UAACAGGGGGCCACAGCAGAAGCGUUCACGUCACAGCCCCAGUCAGAUUCUGGUGAAUCUGCGAAUUCUGCUGUAUAUCUC, for which the self-cleavage is 0.41.

Turning to UAACAGGGGGCCACAGCAGAAGCGUUCACGUCACAGCCCCCGUCAGAUUCUGGUGAAUCUGCGAAUUCUGCUGUAUAUCUC, the self-cleavage was 0.39.

With UAACAGGGGGCCACAGCAGAAGCGUUCACGUCACAGCCCCUGUCAGAUUCUGGUGAAUCUGCGAAAUCUGCUGUAUAUCUC, the self-cleavage came to 0.18.

In the case of UAACAGGGGGCCACAGCAGAAGCGUUCACGUCACAGCCCCUGUCAGAUUCUGGUGAAUCUGCGAACUCUGCUGUAUAUCUC, the self-cleavage turned out to be 0.31.

In the case of UAACAGGGGGCCACAGCAGAAGCGUUCACGUCACAGCCCCUGUCAGAUUCUGGUGAAUCUACGAAUUCUGCUGUAUAUCUC, the self-cleavage was found to be 0.14.

For the variant UAACAGGGGGCCACAGCAGAAGCGUUCACGUCACAGCCCCUGUCAGAUUCGGGUGAAUCUGCGAAUUCUGCUGUAUAUCUC, the self-cleavage came to 0.19.

On to UAACAGGGGGCCACAGCAGAAGCGUUCACGUCACAGCCCCUGUCAGAUUCAGGUGAAUCUGCGAAUUCUGCUGUAUAUCUC, for which the self-cleavage worked out at 0.26.

As to UAACAGGGGGCCACAGCAGAAGCGUUCACGUCACAGCCCCUGUCAGAUUCCGGUGAAUCUGCGAAUUCUGCUGUAUAUCUC, the self-cleavage is 0.37.

Regarding UAACAGGGGGCCACAGCAGAAGCGUUCACGUCCCAGCCCCUGUCAGAUUCUGGUGAAUCUGUGAAUUCUGCUGUAUAUCUC, the self-cleavage was 0.14.

Turning to UAACAGGGGGCCACAGCAGAAGCGUUCACGUCACAGCCCCUGUCAGAUUCUGGUGAAUCUGCGAAUUCUGCUGUAUAUAUC, the self-cleavage was 0.23.

As to UAACAGGGGGCCACAGCAGAAGCGUUCACGUCACAGCCCCUGCCAGAUUCUGGUGAAUCUGCGAAUUCUGCUGUAUAUCUC, the self-cleavage was 0.29.

For the variant UAACAGGGGGCCACAGCAGAAGCGUUCACGUCACAGCCCCUGACAGAUUCUGGUGAAUCUGCGAAUUCUGCUGUAUAUCUC, the self-cleavage came to 0.32.

For UAACAGGGGGCCACAGCAGAAGCGUUCACGUCACAGCCCCUGGCAGAUUCUGGUGAAUCUGCGAAUUCUGCUGUAUAUCUC, the self-cleavage was found to be 0.34.

As to UAACAGGGGGCCACAGCAGAAGCGUUCACGUCACAGCCCCUGUCAGAUUCUGGUGAAUCUGCGAAUUCUGCAGUAUAUCUC, the self-cleavage is 0.23.

For the variant UAACAGGGGGCCACAGCAGAAGCGUUCACGUCACAGCCCCUGUCAGAUUCUGGUGAAUCUGCGAAUUCUGCCGUAUAUCUC, the self-cleavage was 0.26.

For UAACAGGGGGCCACAGCAGAAGCGUUCACGUCACAGCCCCUGUCAGAUUCUGGUGAAUCUGCGAAUUCUGCGGUAUAUCUC, the self-cleavage was 0.24.

Turning to UAACAGGGGGCCACAGCAGAAGCGUUCACGUCACAGCCCCUGUCAGAUUCUGGUGAAUCUGCGAAUUUUGCUGUAUAUCUC, the self-cleavage was 0.19.

For UAACAGGGGGCCACAGCAGAAGCGUUCACGUCACAGCCCCUGUCAGAUUCUGGUGAAUCUGCGAAUUGUGCUGUAUAUCUC, the self-cleavage came out at 0.11.

Turning to UAACAGGGGGCCACAGCAGAAGCGUUCACGUCACAGCCCCUGUCAGAGUCUGGUGAAUCUGCGAAUUCUGCUGUAUAUCUC, the self-cleavage amounted to 0.18.

Regarding UAACAGGGGGCCACAGCAGAAGCGUUCACGUCACAGCCCCUGUCAGACUCUGGUGAAUCUGCGAAUUCUGCUGUAUAUCUC, the self-cleavage is 0.26.

As to UAACAGGGGGCCACAGCAGAAGCGUUCACGUCCCGGCCCCUGUCAGAUUCUGGUGAAUCUGCGAAUUCUGCUGUAUAUCUC, the self-cleavage was found to be 0.22.

As for UAACAGGGGGCCACAGCAGAAGCGUUCACGUCCCUGCCCCUGUCAGAUUCUGGUGAAUCUGCGAAUUCUGCUGUAUAUCUC, the self-cleavage came to 0.14.

As to UAACAGGGGGCCACAGCAGAAGCGUUCACGUCACAGCCCCUGUCAGAUUCUGGUGAAUCUGCGAAUUCUGCUGUACAUCUC, the self-cleavage came out at 0.19.

For UAACAGGGGGCCACAGCAGAAGCGUUCACGUCACAGCCCCUGUCAGAUUCUGGUGAAUCUGAGAAUUCUGCUGUAUAUCUC, the self-cleavage turned out to be 0.37.

Take UAACAGGGGGCCACAGCAGAAGCGUUCACGUCACAGCCCCUGUCAGAUUCUGGUGAAUCUGUGAAUUCUGCUGUAUAUCUC: the self-cleavage is 0.11.

UAACAGGGGGCCACAGCAGAAGCGUUCACGUCCCAGCCCCUGUCAGAUUCUGGUGAAUCUGCGAAUUCUGCUGUAUGUCUC: the self-cleavage was 0.11.

On to UAACAGGGGGCCACAGCAGAAGCGUUCACGUCCCAGCCCCUGUCAGGUUCUGGUGAAUCUGCGAAUUCUGCUGUAUAUCUC, for which the self-cleavage came out at 0.08.
